B1: canonical full-length RAGE from mouse lung (receptor, mouse (endogenous in lung), UniProt Q62151 23-402, looked up)
chain: GQNITARIGEPLVLSCKGAPKKPPQQLEWKLNTGRTEAWKVLSPQGGPWDSVARILPNGSLLLPATGIVDEGTFRCRATNRRGKEVKSNYRVRVYQIPGKPEIVDPASELTASVPNKVGTCVSEGSYPAGTLSWHLDGKLLIPDGKETLVKEETRRHPETGLFTLRSELTVIPTQGGTHPTFSCSFSLGLPRRRPLNTAPIQLRVREPGPPEGIQLLVEPEGGIVAPGGTVTLTCAISAQPPPQVHWIKDGAPLPLAPSPVLLLPEVGHEDEGTYSCVATHPSHGPQESPPVSIRVTETGDEGPAEGSVGESGLGTLALALGILGGLGVVALLVGAILWRKRQPRREERKAPESQEDEEERAELNQSEEAEMPENGAGGP
notes: mouse RAGE, the canonical full-length isoform of lung tissue; source: endogenous, crude membrane fraction of wild-type (C57BL/6) mouse lung
B2: RAGE C2 domain-only fragment (residues 235-404) (domain or fragment, UniProt Q15109 235-404, looked up)
chain: LEEVQLVVEPEGGAVAPGGTVTLTCEVPAQPSPQIHWMKDGVPLPLPPSPVLILPEIGPQDQGTYSCVATHSSHGPQESRAVSISIIEPGEEGPTAGSVGGSGLGTLALALGILGGLGTAALLIGVILWQRRQRRGEERKAPENQEEEEERAELNQSEEPEAGESSTGGP
notes: RAGE C2 domain-only fragment, residues 235-404 (C2 domain with the transmembrane helix and the cytosolic portion); also called C2 fragment; source: CHO-CD14, transfected, expressed on the cell surface, in membrane extracts

Assays:
[1] = target: the molecule itself; assay: non-reducing SDS-PAGE with immunoblot; crude membrane fraction of mouse lung (homogenised with 20 mM N-ethylmaleimide), 15 µg, 4-12% gradient gel, reducing and non-reducing, IB with anti-RAGE; RAGE knockout lung as control
[2] = target: the molecule itself; assay: non-reducing SDS-PAGE with immunoblot; membrane extracts of transfected CHO-CD14 cells; DTT omitted from the loading buffer, 2% LDS, 80°C for 10 min, NuPAGE 4-12% Bis-Tris gel

Protein | stoichiometry N [1] | stoichiometry N [2]
B1 | 2 | 
B2 |  | 2
